# Experimental data published in PMC10175749.
# B1: RcFPPS2 (Rosa chinensis) (protein)
# chain: MSNLRAKFMEVYSVLKSELINDPAFEFTDVSRQWIERMLDYNVPGGKLNRGLSVVDSFKLLKEGRELTDEEVFQSCALGWCIEWLQAYFLVLDDIMDGSHTRRGQPCWFRQPKIGMIAANDGIILRNHIPRILKNHFRVMPYYVDLLDLFNEVEFQTAHGQMIDLITTHEGEKDLSKYSLEIHRRIVQYKTAYYSFYLPVACALVMAGKNVESHADVKNILIEMGTYFQVQDDYLDCFGDPEVIGKVGTDIQDFKCSWMVVKALELSNEEQKKLLHENYGKDDQECIAKVKELYNVLDLQGVFTEYESSSYDKLTKSIEAHPSKAVQAVLKSFLAKIYKRQK
# B2: RcG/FPPS1 (Rosa chinensis; F88Y) (protein)
# chain: MADLKSKFLNVYSVLKSELLEDPAFEFTDASRQWVERMLDYNVPGGKLNRGLSVIDSYQLLQQGRELTEDEIFQASALGWCIEWLQAYFLVLDDMMDGSHTRRGQPCWFRLPKVGLIAANDGVLLRNHIPRILKKHFRQKPYYVDLVDLFNEVEFQTASGQLIDLITTIDGEKDLSKYSLSIHRRIVQYKTAYYSFYLSVACALLMSGEELDKHIDVKNLLVDMGIYFQVQDDYLDCFGDPETIGKIGTDIEDFKCSWLVVKALELSNEEQKKILHENYGNPDPAKVAKVKALYKELDLQGVFAEYERQSYEKLISSIEAHPSKAVQEVLKSFLGKIYKRKK
# B3: RcG/FPPS1 (Rosa chinensis; V123I) (protein)
# chain: MADLKSKFLNVYSVLKSELLEDPAFEFTDASRQWVERMLDYNVPGGKLNRGLSVIDSYQLLQQGRELTEDEIFQASALGWCIEWLQAFFLVLDDMMDGSHTRRGQPCWFRLPKVGLIAANDGILLRNHIPRILKKHFRQKPYYVDLVDLFNEVEFQTASGQLIDLITTIDGEKDLSKYSLSIHRRIVQYKTAYYSFYLSVACALLMSGEELDKHIDVKNLLVDMGIYFQVQDDYLDCFGDPETIGKIGTDIEDFKCSWLVVKALELSNEEQKKILHENYGNPDPAKVAKVKALYKELDLQGVFAEYERQSYEKLISSIEAHPSKAVQEVLKSFLGKIYKRKK
# B4: RcG/FPPS1 (Rosa chinensis; F88Y/V123I) (protein)
# chain: MADLKSKFLNVYSVLKSELLEDPAFEFTDASRQWVERMLDYNVPGGKLNRGLSVIDSYQLLQQGRELTEDEIFQASALGWCIEWLQAYFLVLDDMMDGSHTRRGQPCWFRLPKVGLIAANDGILLRNHIPRILKKHFRQKPYYVDLVDLFNEVEFQTASGQLIDLITTIDGEKDLSKYSLSIHRRIVQYKTAYYSFYLSVACALLMSGEELDKHIDVKNLLVDMGIYFQVQDDYLDCFGDPETIGKIGTDIEDFKCSWLVVKALELSNEEQKKILHENYGNPDPAKVAKVKALYKELDLQGVFAEYERQSYEKLISSIEAHPSKAVQEVLKSFLGKIYKRKK
# B5: RcG/FPPS1 (Rosa chinensis) (protein)
# chain: MADLKSKFLNVYSVLKSELLEDPAFEFTDASRQWVERMLDYNVPGGKLNRGLSVIDSYQLLQQGRELTEDEIFQASALGWCIEWLQAFFLVLDDMMDGSHTRRGQPCWFRLPKVGLIAANDGVLLRNHIPRILKKHFRQKPYYVDLVDLFNEVEFQTASGQLIDLITTIDGEKDLSKYSLSIHRRIVQYKTAYYSFYLSVACALLMSGEELDKHIDVKNLLVDMGIYFQVQDDYLDCFGDPETIGKIGTDIEDFKCSWLVVKALELSNEEQKKILHENYGNPDPAKVAKVKALYKELDLQGVFAEYERQSYEKLISSIEAHPSKAVQEVLKSFLGKIYKRKK
# Substrate: C=C(C)CCO[P@@](=O)(O)OP(=O)(O)O
# Experiment: purified protein
# Details: IPP 0.5-50 µM
# [1] = co-substrate GPP 60 µM, FPP formation
Protein,Km [1] [µM],"Km (co-substrate DMAPP 60 µM, GPP formation) [µM]"
B1,13.1 ± 3.4,–
B2,9.08 ± 0.74,–
B3,14.74 ± 1.94,–
B4,12.78 ± 3.07,–
B5,–,0.44 ± 0.03
